The record followed here is publication PMC4098917, “Assembly of the Type Two Secretion System in Aeromonas hydrophila Involves Direct Interaction between the Periplasmic Domains of the Assembly Factor ExeB and the Secretin ExeD” (PLoS ONE, 2014).

Bounds are passed on as bounds.

The target of experiment [1] is dimerization domain (40 aa) of the Gal4 transcriptional activator protein (pBT-LGF2). Kind of experiment: two-hybrid; bacterial two-hybrid (BacterioMatch, E. coli BM2H; bait pBT, target pTRG); minimum inhibitory concentration of carbenicillin (0-12.8 mg/mL), 0.1 mM IPTG, overnight at 30°C.
In experiment [2] the target is T1, periplasmic domain of ExeB (bacterial two-hybrid fusion) (A. hydrophila, UniProt P45755 58-226).
T1 construct: periplasmic domain of ExeB, A. hydrophila, amplified from pGAD424-P-ExeB; Stood in pBT and in pTRG; also called P-ExeB; source: bacterial two-hybrid fusion (E. coli BM2H)
T1 sequence: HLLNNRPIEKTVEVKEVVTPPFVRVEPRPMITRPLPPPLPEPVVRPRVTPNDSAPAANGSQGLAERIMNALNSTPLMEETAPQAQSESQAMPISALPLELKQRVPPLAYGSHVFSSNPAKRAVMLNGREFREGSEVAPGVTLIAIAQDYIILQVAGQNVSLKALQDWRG
The experiment can be described thus: two-hybrid; bacterial two-hybrid (BacterioMatch, E. coli BM2H; bait pBT, target pTRG); β-galactosidase activity of permeabilized cells, 0.02 mM IPTG. As to conditions: partners not purified.

Experiment [3] deals with T2, N-His-tagged periplasmic domain of ExeD, purified (A. hydrophila, UniProt P31780 26-355).
T2 construct: periplasmic domain of ExeD, A. hydrophila, in NdeI/XhoI of pET30a; the printed primers carry no His codons and no stop codon, so the tag may be the vector's C-terminal one (my surmise); also called P-ExeD; N-His-tagged-P-ExeD; source: E. coli BL21, purified (Ni-NTA, Resource S ion exchange)
T2 sequence: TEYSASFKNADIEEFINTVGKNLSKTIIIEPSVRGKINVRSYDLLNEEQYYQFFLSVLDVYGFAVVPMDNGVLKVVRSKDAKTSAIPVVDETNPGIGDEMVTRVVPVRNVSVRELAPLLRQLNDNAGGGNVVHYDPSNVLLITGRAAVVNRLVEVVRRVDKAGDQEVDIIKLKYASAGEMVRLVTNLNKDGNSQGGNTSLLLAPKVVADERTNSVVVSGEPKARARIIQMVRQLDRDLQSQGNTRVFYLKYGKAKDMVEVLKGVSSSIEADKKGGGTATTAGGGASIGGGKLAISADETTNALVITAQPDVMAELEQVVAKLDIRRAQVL
Kind of experiment: fluorescence polarisation; steady state rotational anisotropy; F-labeled P-ExeB 50 nM, titration of P-ExeD 0-4000 nM, RT buffer, 21°C; apparent Kd from a rectangular hyperbola. The settings on record: both partners purified. (Polarisation of emitted light reports the rotation of a fluorescent probe.)

With “domain (90aa) of the mutant form of the Gal11 protein (pTRG-Gal11P) (domain or fragment)”, the MIC of carbenicillin in experiment [1] is 12.8 mg/mL.

B1: periplasmic domain of ExeD (bacterial two-hybrid fusion) (domain or fragment)
chain: T2 sequence
notes: periplasmic domain of ExeD, A. hydrophila, amplified from pGAD424-P-ExeD; Stood in pTRG and in pBT; also called P-ExeD; full-length P-ExeD; source: bacterial two-hybrid fusion (E. coli BM2H)
Consider B1, for which the “fold β-galactosidase activity over cells with the empty vectors” value in experiment [2] was greater than 11 fold.

B2: fluorescein-EX labeled N-His-tagged periplasmic domain of ExeB (domain or fragment)
chain: T1 sequence
modifications: fluorescein (Fluorescein-EX Protein Labeling kit), ~0.8 moles of dye per mole of protein
notes: periplasmic domain of ExeB, A. hydrophila, in pET30a; Same construct as m27, purified and labelled; also called F-labeled P-ExeB; fluorescein-EX labeled P-ExeB; source: E. coli BL21, purified (Ni-NTA, Resource S ion exchange)
As to B2, in experiment [3], the Kd came out at 1.19 ± 0.16 µM.
